In PMC12477886:

Biological target: SARS-CoV-2 WA1/2020 S2 protein (stabilized prefusion spike S2 trimer) (SARS-CoV-2 (USA-WA1/2020)) (UniProt P0DTC2)
Experiment: cryo-EM structure

Substance: SARS-CoV-2 WA1/2020 S2 protein (stabilized prefusion spike S2 trimer) (from UniProt P0DTC2) (domain or fragment)
- stoichiometry N: 3
